In patent US10562947B2, “Compositions and methods for preventing or treating diseases, conditions or processes characterized by aberrant fibroblast proliferation and extracellular matrix deposition” (MOERAE MATRIX, INC., priority 2011, dated 2020):

What was measured:
Assay in all cases: Kinase Profiling Assay
Type in all cases: biochemical
Conditions in all cases: 100 μM peptide
DRAK1(h) = biological target: T1, DRAK1(h) (Homo sapiens, UniProt Q9UEE5)
T1 sequence (Q9UEE5 1-414): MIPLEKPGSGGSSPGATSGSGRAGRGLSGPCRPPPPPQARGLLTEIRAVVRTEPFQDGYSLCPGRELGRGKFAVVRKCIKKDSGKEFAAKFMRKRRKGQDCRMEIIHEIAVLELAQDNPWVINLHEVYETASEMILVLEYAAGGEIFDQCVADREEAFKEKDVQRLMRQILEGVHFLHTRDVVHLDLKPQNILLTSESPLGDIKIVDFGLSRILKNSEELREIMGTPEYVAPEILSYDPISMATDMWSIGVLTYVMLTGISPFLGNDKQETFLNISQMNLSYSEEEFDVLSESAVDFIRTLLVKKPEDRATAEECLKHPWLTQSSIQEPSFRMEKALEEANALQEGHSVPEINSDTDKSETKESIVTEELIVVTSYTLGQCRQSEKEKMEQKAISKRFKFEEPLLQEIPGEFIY
Procedure: (§1) Every kinase activity measurement was conducted in duplicate.
(§2) In addition to determining the IC50 of the compound, the specificity of MK2 inhibitory peptides was assessed by examining activities of all 266 human kinases available for testing in the Millipore kinase profiling service (Table 1).

EphA7(h) = EphA7(h) (Homo sapiens, UniProt Q15375)
Procedure: as §1, §2

NEK6(h) = NEK6(h) (Homo sapiens, UniProt Q9HC98)
Procedure: as §1, §2

NEK11(h) = biological target: T2, NEK11(h) (Homo sapiens, UniProt Q8NG66)
T2 sequence (Q8NG66 1-645): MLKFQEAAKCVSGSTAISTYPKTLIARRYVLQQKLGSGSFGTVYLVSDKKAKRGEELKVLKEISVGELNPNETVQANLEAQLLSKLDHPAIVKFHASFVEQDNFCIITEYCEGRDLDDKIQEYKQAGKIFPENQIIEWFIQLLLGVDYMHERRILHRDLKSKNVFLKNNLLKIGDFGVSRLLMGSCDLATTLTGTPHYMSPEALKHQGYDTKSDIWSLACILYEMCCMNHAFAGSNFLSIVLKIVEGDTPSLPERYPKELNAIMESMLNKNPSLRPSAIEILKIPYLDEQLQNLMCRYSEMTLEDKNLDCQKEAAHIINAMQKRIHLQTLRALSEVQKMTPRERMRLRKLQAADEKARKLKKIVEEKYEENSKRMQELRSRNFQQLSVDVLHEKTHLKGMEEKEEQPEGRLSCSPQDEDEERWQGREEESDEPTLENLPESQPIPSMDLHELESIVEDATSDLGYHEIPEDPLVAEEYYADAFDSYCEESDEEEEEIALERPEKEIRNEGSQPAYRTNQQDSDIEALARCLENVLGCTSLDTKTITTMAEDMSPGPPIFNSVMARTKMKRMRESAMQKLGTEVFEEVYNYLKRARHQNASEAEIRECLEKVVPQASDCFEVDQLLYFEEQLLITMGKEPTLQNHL
Procedure: as §1, §2

SRPK2(h) = SRPK2(h) (Homo sapiens, UniProt P78362)
Procedure: as §1, §2

DDR2(h) = biological target: T3, DDR2(h) (Homo sapiens, UniProt Q16832)
T3 sequence (Q16832 22-855): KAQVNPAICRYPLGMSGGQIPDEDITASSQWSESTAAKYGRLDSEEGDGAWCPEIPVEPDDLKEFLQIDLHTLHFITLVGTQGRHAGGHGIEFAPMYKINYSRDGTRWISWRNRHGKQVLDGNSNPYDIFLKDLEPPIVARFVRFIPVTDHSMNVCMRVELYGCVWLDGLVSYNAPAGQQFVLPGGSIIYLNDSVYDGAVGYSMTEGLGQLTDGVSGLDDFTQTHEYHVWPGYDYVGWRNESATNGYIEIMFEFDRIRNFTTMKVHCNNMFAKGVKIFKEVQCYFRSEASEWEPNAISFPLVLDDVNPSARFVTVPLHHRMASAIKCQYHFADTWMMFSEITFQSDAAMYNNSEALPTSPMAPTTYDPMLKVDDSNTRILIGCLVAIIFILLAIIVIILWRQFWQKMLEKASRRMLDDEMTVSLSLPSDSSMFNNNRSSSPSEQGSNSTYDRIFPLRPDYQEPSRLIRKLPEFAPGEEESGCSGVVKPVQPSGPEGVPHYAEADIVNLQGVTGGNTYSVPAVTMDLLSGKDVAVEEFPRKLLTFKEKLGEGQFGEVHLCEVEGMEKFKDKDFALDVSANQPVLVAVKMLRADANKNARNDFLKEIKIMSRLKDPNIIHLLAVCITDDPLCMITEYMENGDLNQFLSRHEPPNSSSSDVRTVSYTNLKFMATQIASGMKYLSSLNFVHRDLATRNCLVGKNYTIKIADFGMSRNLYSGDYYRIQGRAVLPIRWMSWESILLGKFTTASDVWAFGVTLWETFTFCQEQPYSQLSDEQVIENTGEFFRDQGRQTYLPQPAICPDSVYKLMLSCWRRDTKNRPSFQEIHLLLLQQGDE
Procedure: as §1, §2

CHK2(h) = CHK2(h) (Homo sapiens, UniProt O96017)
Procedure: as §1, §2

Chain of EphA7(h) (Q15375 28-998): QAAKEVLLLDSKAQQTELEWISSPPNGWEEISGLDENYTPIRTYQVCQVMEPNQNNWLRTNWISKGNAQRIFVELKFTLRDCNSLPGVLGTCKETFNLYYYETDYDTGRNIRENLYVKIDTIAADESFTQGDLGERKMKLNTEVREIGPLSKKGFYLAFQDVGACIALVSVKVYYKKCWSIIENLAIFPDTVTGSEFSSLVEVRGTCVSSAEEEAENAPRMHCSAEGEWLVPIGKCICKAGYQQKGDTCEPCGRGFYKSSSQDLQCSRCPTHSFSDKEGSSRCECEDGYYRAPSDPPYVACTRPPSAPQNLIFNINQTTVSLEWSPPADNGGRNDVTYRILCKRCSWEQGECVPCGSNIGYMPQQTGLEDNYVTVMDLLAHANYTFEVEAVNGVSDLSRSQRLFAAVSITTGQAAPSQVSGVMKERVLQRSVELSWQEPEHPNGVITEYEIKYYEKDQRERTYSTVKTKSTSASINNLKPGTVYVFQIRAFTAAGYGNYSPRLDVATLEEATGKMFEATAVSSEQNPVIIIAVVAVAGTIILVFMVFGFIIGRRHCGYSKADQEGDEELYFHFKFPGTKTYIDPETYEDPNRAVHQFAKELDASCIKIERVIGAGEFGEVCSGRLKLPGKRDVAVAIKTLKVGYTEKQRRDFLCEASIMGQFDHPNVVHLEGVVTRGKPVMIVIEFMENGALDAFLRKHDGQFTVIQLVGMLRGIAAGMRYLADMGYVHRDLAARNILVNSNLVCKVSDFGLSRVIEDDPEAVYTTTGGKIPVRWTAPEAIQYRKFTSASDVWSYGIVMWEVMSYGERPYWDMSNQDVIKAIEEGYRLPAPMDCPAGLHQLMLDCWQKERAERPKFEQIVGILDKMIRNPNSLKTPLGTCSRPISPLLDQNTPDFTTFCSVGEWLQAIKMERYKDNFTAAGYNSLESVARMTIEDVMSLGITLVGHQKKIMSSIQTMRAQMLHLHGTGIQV
Chain of SRPK2(h) (P78362 whole entry): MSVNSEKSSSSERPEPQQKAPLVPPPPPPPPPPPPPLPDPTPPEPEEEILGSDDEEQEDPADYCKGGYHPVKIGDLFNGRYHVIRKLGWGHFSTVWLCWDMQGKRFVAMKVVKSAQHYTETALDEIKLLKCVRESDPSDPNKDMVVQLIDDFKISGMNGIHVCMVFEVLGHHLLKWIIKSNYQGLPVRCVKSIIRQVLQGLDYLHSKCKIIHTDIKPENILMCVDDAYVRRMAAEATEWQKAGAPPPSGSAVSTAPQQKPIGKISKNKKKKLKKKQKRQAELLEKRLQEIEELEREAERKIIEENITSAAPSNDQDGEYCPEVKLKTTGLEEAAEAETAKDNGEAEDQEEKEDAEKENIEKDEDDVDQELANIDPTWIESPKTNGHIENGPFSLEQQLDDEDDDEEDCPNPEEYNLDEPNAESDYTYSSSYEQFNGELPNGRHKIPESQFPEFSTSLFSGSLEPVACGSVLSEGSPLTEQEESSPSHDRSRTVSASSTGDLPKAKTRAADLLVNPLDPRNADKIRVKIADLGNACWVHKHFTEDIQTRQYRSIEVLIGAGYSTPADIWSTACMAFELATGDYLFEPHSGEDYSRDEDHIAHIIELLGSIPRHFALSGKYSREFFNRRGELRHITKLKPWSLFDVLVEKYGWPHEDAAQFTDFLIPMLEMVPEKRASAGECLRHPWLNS
Chain of NEK6(h) (Q9HC98 whole entry): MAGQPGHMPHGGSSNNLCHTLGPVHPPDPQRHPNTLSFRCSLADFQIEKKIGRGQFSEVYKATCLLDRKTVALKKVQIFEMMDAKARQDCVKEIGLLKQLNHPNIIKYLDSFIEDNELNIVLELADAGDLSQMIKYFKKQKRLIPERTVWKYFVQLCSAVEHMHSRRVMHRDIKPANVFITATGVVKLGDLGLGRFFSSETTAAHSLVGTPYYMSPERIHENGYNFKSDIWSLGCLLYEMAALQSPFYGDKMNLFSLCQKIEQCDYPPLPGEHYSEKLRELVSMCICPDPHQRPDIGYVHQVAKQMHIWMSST
Chain of CHK2(h) (O96017 whole entry): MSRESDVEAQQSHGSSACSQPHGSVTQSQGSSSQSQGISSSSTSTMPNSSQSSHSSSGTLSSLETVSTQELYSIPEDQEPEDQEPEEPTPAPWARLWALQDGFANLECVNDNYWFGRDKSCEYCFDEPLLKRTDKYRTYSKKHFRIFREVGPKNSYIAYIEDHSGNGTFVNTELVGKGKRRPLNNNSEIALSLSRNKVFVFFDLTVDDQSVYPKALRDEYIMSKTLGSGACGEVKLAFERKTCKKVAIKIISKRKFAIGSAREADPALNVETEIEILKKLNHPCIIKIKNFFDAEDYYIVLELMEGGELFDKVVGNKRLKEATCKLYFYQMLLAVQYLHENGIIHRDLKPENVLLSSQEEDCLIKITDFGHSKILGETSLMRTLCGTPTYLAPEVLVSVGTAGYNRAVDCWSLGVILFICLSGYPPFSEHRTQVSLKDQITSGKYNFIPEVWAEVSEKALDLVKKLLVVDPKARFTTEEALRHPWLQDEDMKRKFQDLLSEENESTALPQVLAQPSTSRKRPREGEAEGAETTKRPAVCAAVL

Row | Sequence | DRAK1(h) % activity (DRAK1(h)) [%] | EphA7(h) % activity (EphA7(h)) [%] | NEK6(h) % activity (NEK6(h)) [%] | NEK11(h) % activity (NEK11(h)) [%] | SRPK2(h) % activity (SRPK2(h)) [%] | DDR2(h) % activity (DDR2(h)) [%] | CHK2(h) % activity (CHK2(h)) [%]
1 | YARAAARQARAKALNRQLGVA (Mammalian) [MMI-0200] | 34 | 220 | 98 | 95 | 100 |  | 
2 | HRRIKAWLKKIKALARQLGVAA (Mammalian) [MMI-0500] | 8 | 189 | 49 | 2 | 80 | 79 | 13
3 | KAFAKLAARLYRKALARQLGVAA [MMI-0400] | 14 | 222 | 85 | 33 | 97 | 95 | 54
4 | FAKLAARLYRKALARQLGVAA [MMI-0300] | 14 | 159 | 82 | 53 |  | 94 | 66
